Measurements reported in PMC6220335, “Molecular structure of promoter-bound yeast TFIID” (Nature Communications, 2018).

Experiments:
Assay in all cases: cross-linking; 50 µg purified TFIID, 3 mM BS3, 2 h at 25 °C; trypsin, SCX fractionation, Orbitrap Fusion MS; pLink and Nexus, 5% FDR
Conditions in all cases: both partners purified
[1] = biological target: T1, Taf1 (TBP-associated factor 1), subunit of Komagataella phaffii TFIID (Komagataella phaffii, UniProt F2QMX2 1-1010)
T1 construct: Taf1, TFIID subunit of the yeast Komagataella phaffii (formerly Pichia pastoris); native subunit of the purified complex; also called KpTaf1; source: endogenous, K. phaffii nuclear extract; co-purified in TFIID by SBP-tagged Taf2 (streptavidin beads, sucrose gradient)
T1 sequence (looked up): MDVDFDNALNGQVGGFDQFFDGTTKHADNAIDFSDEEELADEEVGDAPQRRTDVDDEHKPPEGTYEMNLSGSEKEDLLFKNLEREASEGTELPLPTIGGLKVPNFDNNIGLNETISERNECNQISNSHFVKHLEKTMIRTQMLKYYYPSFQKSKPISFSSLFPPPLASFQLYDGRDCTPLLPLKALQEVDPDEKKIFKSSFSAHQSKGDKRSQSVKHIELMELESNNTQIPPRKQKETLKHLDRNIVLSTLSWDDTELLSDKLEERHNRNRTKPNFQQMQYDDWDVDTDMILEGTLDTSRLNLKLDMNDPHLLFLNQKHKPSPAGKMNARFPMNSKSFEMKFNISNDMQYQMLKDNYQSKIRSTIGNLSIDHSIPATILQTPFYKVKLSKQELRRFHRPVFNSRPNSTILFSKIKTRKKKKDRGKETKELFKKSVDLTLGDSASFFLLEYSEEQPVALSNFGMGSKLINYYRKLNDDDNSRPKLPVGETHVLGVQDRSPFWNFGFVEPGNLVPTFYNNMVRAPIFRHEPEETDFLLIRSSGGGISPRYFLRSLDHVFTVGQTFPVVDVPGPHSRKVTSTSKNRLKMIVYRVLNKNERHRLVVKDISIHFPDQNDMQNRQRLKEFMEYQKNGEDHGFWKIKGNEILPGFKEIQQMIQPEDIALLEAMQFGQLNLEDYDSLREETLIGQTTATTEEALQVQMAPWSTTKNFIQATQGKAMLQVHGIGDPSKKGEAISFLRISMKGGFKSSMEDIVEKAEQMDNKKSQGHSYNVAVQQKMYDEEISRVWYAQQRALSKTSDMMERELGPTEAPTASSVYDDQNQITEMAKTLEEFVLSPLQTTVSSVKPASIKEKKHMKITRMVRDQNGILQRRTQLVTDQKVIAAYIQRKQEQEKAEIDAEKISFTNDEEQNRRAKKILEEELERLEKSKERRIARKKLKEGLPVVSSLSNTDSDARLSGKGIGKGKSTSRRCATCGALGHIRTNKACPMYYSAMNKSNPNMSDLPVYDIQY

[2] = biological target: T2, Taf2 with C-terminal streptavidin-binding peptide tag, subunit of Komagataella phaffii TFIID (Komagataella phaffii, UniProt F2QRH9 1-1571)
T2 construct: Taf2, TFIID subunit of the yeast Komagataella phaffii (formerly Pichia pastoris); residues 36 to 1194 modelled in the cryo-EM map; bait of the purification; also called SBP-tagged Taf2; source: K. phaffii strain with SBP-tagged Taf2, nuclear extract; purified (streptavidin beads, biotin elution, sucrose gradient)

[3] = biological target: T3, Taf11, subunit of Komagataella phaffii TFIID (Komagataella phaffii, UniProt F2QRB1 1-281)
T3 construct: Taf11, TFIID subunit of the yeast Komagataella phaffii (formerly Pichia pastoris); histone-fold domain modelled in the cryo-EM map; source: endogenous, K. phaffii nuclear extract; co-purified in TFIID by SBP-tagged Taf2 (streptavidin beads, sucrose gradient)
T3 sequence (looked up): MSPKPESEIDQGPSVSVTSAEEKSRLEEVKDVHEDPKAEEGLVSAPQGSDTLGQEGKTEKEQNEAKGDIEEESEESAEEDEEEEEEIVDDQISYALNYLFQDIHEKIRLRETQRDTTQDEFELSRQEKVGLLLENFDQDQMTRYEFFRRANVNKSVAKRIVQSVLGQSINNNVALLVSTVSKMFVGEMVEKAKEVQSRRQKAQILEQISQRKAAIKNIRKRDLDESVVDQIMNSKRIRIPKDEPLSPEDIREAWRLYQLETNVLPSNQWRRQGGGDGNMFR

[4] = biological target: T4, Taf5, subunit of Komagataella phaffii TFIID (Komagataella phaffii, UniProt F2QWD3 1-722)
T4 construct: Taf5, TFIID subunit of the yeast Komagataella phaffii (formerly Pichia pastoris); WD40 repeat and NTD (residues 99–243) modelled in the cryo-EM map; two copies in holo-TFIID; source: endogenous, K. phaffii nuclear extract; co-purified in TFIID by SBP-tagged Taf2 (streptavidin beads, sucrose gradient)
T4 sequence (looked up): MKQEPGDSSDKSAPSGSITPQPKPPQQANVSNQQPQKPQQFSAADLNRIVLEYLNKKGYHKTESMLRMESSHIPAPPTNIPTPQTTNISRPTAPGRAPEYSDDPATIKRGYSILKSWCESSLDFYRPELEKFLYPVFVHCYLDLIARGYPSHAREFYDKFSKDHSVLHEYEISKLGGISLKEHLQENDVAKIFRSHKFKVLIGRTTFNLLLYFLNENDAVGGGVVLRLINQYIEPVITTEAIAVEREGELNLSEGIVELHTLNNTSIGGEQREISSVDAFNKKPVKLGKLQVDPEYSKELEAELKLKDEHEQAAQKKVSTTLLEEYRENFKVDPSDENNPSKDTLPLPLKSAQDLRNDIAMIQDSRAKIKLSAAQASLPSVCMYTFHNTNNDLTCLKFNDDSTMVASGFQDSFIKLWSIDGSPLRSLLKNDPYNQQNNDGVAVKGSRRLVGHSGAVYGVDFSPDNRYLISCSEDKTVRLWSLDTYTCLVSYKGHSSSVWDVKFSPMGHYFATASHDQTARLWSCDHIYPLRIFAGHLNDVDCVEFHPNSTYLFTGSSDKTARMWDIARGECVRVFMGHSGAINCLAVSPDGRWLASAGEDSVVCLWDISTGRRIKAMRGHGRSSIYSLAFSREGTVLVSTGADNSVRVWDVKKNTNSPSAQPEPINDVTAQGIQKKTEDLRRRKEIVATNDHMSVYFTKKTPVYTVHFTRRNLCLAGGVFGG

[5] = biological target: T5, Taf8, subunit of Komagataella phaffii TFIID (Komagataella phaffii, UniProt F2QT15 1-517)
T5 construct: Taf8, TFIID subunit of the yeast Komagataella phaffii (formerly Pichia pastoris); putative helices placed in the cryo-EM map; also called KpTaf8; source: endogenous, K. phaffii nuclear extract; co-purified in TFIID by SBP-tagged Taf2 (streptavidin beads, sucrose gradient)
T5 sequence (looked up): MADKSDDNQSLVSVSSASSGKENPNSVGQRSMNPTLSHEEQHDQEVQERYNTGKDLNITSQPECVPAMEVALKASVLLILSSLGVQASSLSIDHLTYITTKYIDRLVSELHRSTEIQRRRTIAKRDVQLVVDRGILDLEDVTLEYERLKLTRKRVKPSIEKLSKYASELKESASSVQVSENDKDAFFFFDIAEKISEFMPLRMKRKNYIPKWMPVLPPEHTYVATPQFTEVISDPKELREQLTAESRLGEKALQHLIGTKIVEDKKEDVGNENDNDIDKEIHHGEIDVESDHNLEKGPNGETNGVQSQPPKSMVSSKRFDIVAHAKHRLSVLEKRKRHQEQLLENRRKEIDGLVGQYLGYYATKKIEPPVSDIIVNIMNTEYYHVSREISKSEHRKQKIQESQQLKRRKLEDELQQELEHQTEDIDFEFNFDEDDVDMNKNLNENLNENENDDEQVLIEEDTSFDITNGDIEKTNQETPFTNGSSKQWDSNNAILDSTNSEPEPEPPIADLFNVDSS

B1: Taf7, subunit of Komagataella phaffii TFIID (natural protein, UniProt F2QXR8 1-460, looked up)
chain: MIKLKLHTDKKQNTVERRPKIKVKPPINKPESTVIPRIRVKPTRIAGDGYDSEDPDREDDPTTEEAIVMRIVPNDYSLEYVKKCVEQGDFSEISLQWKDKRRAVLRLKDRLYGAKLVDLPTMVEIHKTIDRKNIFKTMDVSQILLVIKELKYESEYLDIQLTASETFDDGLTPPLRGVKKRFDKRMTSKVFQIIEEQVDELFRLDEEAEASKYELVDTEAGTIPSFDADASTPNTKEFTVRGHLDVEDNEDLELELEQAFQQQSDTPLNPQQRSKGGRKTNDSDAHVRFYEQEEEDDEDEETFELKRVCSAEAKVEEGEEEAEEETEETEDDEDDDDEEVVGGKEIISGQRAGIDERLTHTQIIKEEIEELQATIGLKQSDFNKASNPIMKNRISDVIGRLKAELETKLRQVEMEQKEQQNNSNVTSHNIYQQRELDEDEDEDDDEDGDEDDDDDMEDLF
notes: Taf7, TFIID subunit of the yeast Komagataella phaffii (formerly Pichia pastoris); source: endogenous, K. phaffii nuclear extract; co-purified in TFIID by SBP-tagged Taf2 (streptavidin beads, sucrose gradient)
[1]
  binding result: binds
[2]
  binding result: binds

B2: Taf9, subunit of Komagataella phaffii TFIID (natural protein, UniProt F2QTW3 1-153, looked up)
chain: MTNEQAAIPRDVRLLHLIFATQNIYSYQDHVPLQLMDFAYRYTTGTLQDATIYSDHAHASGSHISNAGNAGTNAQLTTEDIRLAIAARTNYQFKPVPPKELLLELAAERNKKPLPAVIPTWGIRLPPEKYCLTGKDWVLEDEEEAVSYKKRKT
notes: Taf9, TFIID subunit of the yeast Komagataella phaffii (formerly Pichia pastoris); histone-fold domain modelled in the cryo-EM map; source: endogenous, K. phaffii nuclear extract; co-purified in TFIID by SBP-tagged Taf2 (streptavidin beads, sucrose gradient)
[3]
  binding result: binds
[4]
  binding result: binds

B3: Taf10, subunit of Komagataella phaffii TFIID (natural protein, UniProt F2QLJ9 1-217, looked up)
chain: MSTEKLFEDLDEDSLMQDVEGGVEGSMTIEEEPEPNDEKEAPHISMPSLPEYTRKDKTLEEILEMMEDEEFTPIIPDAVTDYYLAKNGFETSDIKIKRILALATQKFISDIAQDAYEYSRIRSSSSVYTSANPQARARQLVAGQQQQQQQQPQQQQQQQPQTGASQPAPTVGGSGGGGGGGGGTSTGTNNKVVLTMDDLRSALGEYGINVKRPNFYR
notes: Taf10, TFIID subunit of the yeast Komagataella phaffii (formerly Pichia pastoris); source: endogenous, K. phaffii nuclear extract; co-purified in TFIID by SBP-tagged Taf2 (streptavidin beads, sucrose gradient)
[5]
  binding result: binds
